# Experimental data: the DeepSol protein solubility set
# Test: soluble on expression in E. coli; label from the status in PepcDB or PDB records
row,Sequence,soluble on expression in E. coli
1,MGSDKIHHHHHHMAGATLLTSSCNDWLDVLPKNEQVSPEYWKTKEQVEEVLAQGYQNMRLTVPTLIYWGELRGASIYAYSGKSKQELQNFQLNSSSGECKWGGFYSILNVANSIIKYAPEVKRQDETYHEAVMNSNMAEAYFMRAWTYFTLVRNFKEVPLILEPYMTDEYAVDIPKSSEETIIAQIKLDIENALSTGAAKEMYDDEDWTGMSKGRVTVWALYALMADVCLWSEDYDGCVRYADMLINSTSAFRPAFVEDPEQWYNIFFPGNSNGSIFELNFDQSRNQSPDDDATASTYPSPSNVYPWTQSTVASLQFSNAMCKRLFDEQTDQWVTSNTVRGYGNTFVLSSGTVIGNSNTEGYLPFKFRIGGKDGLSTTRSYKDANWILYRMADVLLMKAEALIWKGGEANFAQALELINKIRTRANVTTLSVQTNAVSQENMLGYLLQERDLEFAAEGKRWYDLLRFGRSQNFKYKDQFINMIIENNSTVSASWIRSVLKNTDAWYLPISQGEIDSNPNLIQNPYYDVTAN,not soluble
2,MSLKGGYAVVDFKVPNERDNASTTKLEVNFPTDHPLASVMPQPVPGWKAEVTKAKPAKPLESHGKQITEVVTKVTWTADGKGVEPGYFQKFPVSIGALPEDADQLVFKAIQTYSNKEVVRWIEVPQEGQEEPETPAPVLKLSAAEDDAHGASEGHHHHHH,soluble
3,MGSDKIHHHHHHMLFNQLQNETNLTNSEKEIARYLLNQNLDLATLSAQKLGELTFTSKPTVLRFIKKLGYKKFNEFCYDLISEQERIKKSRDLLKHININKDSNLSDLLIKVPNLYNQAINRTNSLMDQENLNLIVKKLNTLDYIDFYGSGITEGLAQIGSFKFSSIGKFGGVYSNVNEHYLTSIHGINKHGAIIISFTGGNKAMINAAKDLKKLNIYSLGIGGLENEELKNNCSSYLTIPFENLSLGMESIVPSVAINYVIDILFTSLTIKNLSQNVTNALKVKNLRK,not soluble
4,MGSDKIHHHHHHMFVPAPDATITNCRNCPLRRKPLFLPFSDSELSFMEQFKVGELVVAPGVTLLEEGQGSAHLFTVLSGLGIRSTMLENGRRQVINFLFPGDFIGLQAGLAGEMRHSVESTTTMVLCVFNRADLWDLFREEPERAYDLTWIAAVEEHFLGETIASLGQRDATERLAWALLRIHERLSAIGLAERGRVPMPWRQQDLADALGLSLVHTNKTIRRLRETGHALWEGGTLFVDRERLATLALADPDRPRRRPLI,not soluble
5,MNELVSIITPCYNSAATIRETIRSVIAQSYVNWELLIIDDCSNDDSVKIIMEFMDTDSRIYYLKTEHPSGGPTLPRNVGIQAAKGRFIAFLDSDDIWLPNKLSTQLPLFINDNVAIVYSDYEKISEEGNRTGRIVKSDPYHHYKSLLCGNELGCLTVVYDTQKIGKRYFKFIGHEDYNLWLDILKEGFIAINTNICLALYRIRKGSVSSNKLRVIKWIWHIYRVEQKKTIWLSLYYSLSDLNKSLFKYLKLEHHHHHH,soluble
6,MDNELTSRPDSIMDTEPTTLPDSAMDTKPTNLPDFPSTSQEPVSRRTRSRTLSDNSNAVWKRERRSRETSQESESRLRMDWERKKEKRASMSEEEKAEMKYKKRVWMKKKRNEVAKTHDTSSVANPNYLGSMRCVCKNCNARFFQGIHFFKV,not soluble
7,MGSSHHHHHHSSGLVPRGSHMLLREVTREERKNFYTNEWKVKDIPDFIVKTLELREFGFDHSGEGPSDRKNQYTDIRDLEDYIRATAPYAVYSSVALYEKPQEMEGWLGTELVFDIDAKDLPLRRCEHEPGTVCPICLNDAKEIVRDTVIILREELGFNDIHIIYSGRGYHIRVLDEWALKLDSKSRERILSFVSASEIEDVEEFRKLLLNKRGWFVLNHGYPRAFRLRFGYFILRIKLPHLINAGIRKSIAKSILKSKEEIYEEFVRKAILAAFPQGVGIESLAKLFALSTRFSKSYFDGRVTVDLKRILRLPSTLHSKVGLIAKYVGTNERDVMRFNPFKHAVPKFRKEEVKVEYKKFLESLGT,soluble
8,MRLLVAFAVIYFISISPVCAENTASTINIPTPAIESPLASKSLLLDISLIGQEKLVTVGQHGHILLSNDGKKWQQANVPVQVTLTNVFFLNEQLGWAVGHDATILHSQDGGLNWQVQQYLPLLEKPLFDIYFKNPQQGIAVGAYGQVFRTNDGGSTWQNEFHQEILLADDVEYLNELKAEDEAAYLDEITFILPHFNRLVQDGGSLFLLGETGLLAKSDDFGLTWQQFDNFYQGSFFSLARTKTGNVLVAGLRGHVFRSLNHGSQWDEVPTNTTALLNDIVFANDERIFILGNNGMLLISTDDGESFSKIPQQDGKTLIAGVWFKGQLIAVSDVGIKVVDLSQELEHHHHHH,not soluble
9,MSTTAYQPIAECGATTQSEAAAYQKRWLVANDAGQWLNRDLCPRLAEVSVELRMGYLVLKAPGMLRLDIPLDVIEDDDSVRYQMLVGEQTVDVVDEGELAAAWISNHAGVPCRILKVHPDMAEVRWPSLEHHHHHH,soluble
10,MKRVISKILKKEKEKEEEVEEKTIGLIIDGPNILRKEFGIKLEDIKKALEKIGKIRVAKVVLNQYAPQGLIEAVVNQGFEPIIVAGDTDVRVAIEAMELIYNTDVDVIALATRDADFLPLISEAKRKGKETVVIGVEPGFSVALQNAADYIIKMEKKKEAEGY,soluble
11,MGSDKIHHHHHHMGIYFNPGNGSFTKDKNSQLYIDKTGLIEYLNRVICTNANCISVSHARRFGKSHAAGMIDAYYSRGCDSSELFADSEIAAKDSYSAHLNKYNVIHIDVSSFWDAYKDNVIEKIQEYIYDELKQVYGDQIDYTKMISAVLMSVYNISDIPFVIIIDEWDCVIRNGGNKTLVHSYLQFLHLLFKSEESKTFLALAYITGILPIKKIKDESALNNFREFTMLKSKQLTRYFGFTEDEVKKLCITYDMDFESIKAWYNGYLIDGLHMYNPNSVVQAMLDHDYDFYWKNTSSFESINTFITMNYAGLKDDVLAMLSGDKIRVNVNTFQNDLTTVASKDDALTALIHLGYLAYDANRKMAYIPNYEVAAAYDLALQTGSWSEVANSISKCDELLDATLNEDADKVAELVEIAHETYTSVLKYNDENSLSCALTMAYFTANAYYNIVREFPAGKGFADLVFIPRANACGRPAIVIELKYNASADSAISQIKNRRYHGALSGYSNQILLVGINYSNTSDNKKHTCIIESINNLD,not soluble
12,MNRQIVRSALFVPATRPERIPKALASGADRVIVDLEDAVEEGLKVEARANLRRFLVDTPEARVLVRINAAEHPGHADDLALCRDHAGVIGLLLPKVESAAQVRHAAVASGKPVWPIVESARGLAALGEIAAAAGVERLSFGSLDLALDLDLNSGSNAAEQILGHARYALLLQTRLAGLAPPLDGVYPAIQNRAGLVEAVRFARDMGFGGLLCIHPSQVEPIHQTLMPSPAELEWARRVAEAGASGAGVFVVDGEMVDAPVLGRARRLLERAGEGG,not soluble
13,MTEYGGGEVYLLDLDSVVDGSALRMISSGGLRGRVLIHSALVDYLYSEAKRGRSAGYAGLAELSRLMDAGVGDVEIVVVEDDARVQPRDEGELKSVLRRYALRVGATLVTSDPVQARAARALGVSVLFTGRSRTGRIRIEE,not soluble
14,MEIMLTYKTFKILGREILIGVVWEEKIQGIAYSLDGLEFLKDQLSRVTSHLKSRGVKVNLLEEKSRYPDLVFDVLKGKIGNEKGFEELSLEGLTRFEIKVYSWLVKNVKRGEVITYGKVAKALKTSPIAVGGAMKRNPYPIIVPCHRVVGKNNPWLYTPKPSYKKFLLEVEGWIS,soluble
15,VLEQAVYNARVMDIRDIEKESQEQAPEVEMVSELGSDVVVLDIRSAEEEDEKPLELDGVEVTHIPFFKLATKFGDLDQSKEYLLYCERGVMSRLQALLLIENGYKNVKVYRP,not soluble
16,MGSDKIHHHHHHMCRLLAYLGSPVSLEHLLYKPEHSLIVQSYKPREMTSGAVNADGFGVGWYHSQKDIEPFTYKNTLPIWNDINLLSLSRYIESKCVLAYVRSATSEQAVDFANCQPFKHQQQLFIHDGRIENFHKTLHRKIRSTLTQDFYEKINGNTDSEHIFALLLSQSQINKHRPPEYALRTTLLTLLEMAKRYQVEASINVIFSDGHRLIASRFATTSLAPSLYWVRDDPTFSNSVIIASEPLFIGNWNAFPENSIITVGADCEIQIEQI,not soluble
17,MEKEKKGAKHELDLSSILQFVAPGTPLRAGMENVLRANTGGLIVVGYNDKVKEVVDGGFHINTAFSPAHLYELAKMDGAIILSDSGQKILYANTQLMPDATISSSETGMRHRTAERVAKQTGCLVIAISERRNVITLYQENMKY,not soluble
18,MKMKTDDTFNHAHADRLLLPNASLLGEVENMLADGRSVMLKATGNSMLPFIVGGRDSVLVRRPSGIQALQVWQIALAHLPDSRYVLHRIVRIHGAEIVLMGDGNLKETESCRFPDITGVVTRIIRNGRYVDCDAGGERCKAKIWGRLLPIRRYLLYIYRRVWI,not soluble
19,MKLLHAIQTHAETYPQTDAFRSQGQSLTYQELWEQSDRAAAAIQKRISGEKKSPILVYGHMEPHMIVSFLGSVKAGHPYIPVDLSIPSERIAKIIESSGAELLIHAAGLSIDAVGQQIQTVSAEELLENEGGSVSQDQWVKEHETFYIIYTSGSTGNPKGVQISAANLQSFTDWICADFPVSGGKIFLNQAPFSFDLSVMDLYPCLQSGGTLHCVTKDAVNKPKVLFEELKKSGLNVWTSTPSFVQMCLMDPGFSQDLLPHADTFMFCGEVLPVSVAKALLERFPKAKIFNTYGPTEATVAVTSVEITNDVISRSESLPVGFAKPDMNIFIMDEEGQPLPEGEKGEIVIAGPSVSRGYLGEPELTEKAFFSHEGQWAYRTGDAGFIQDGQIFCQGRLDFQIKLHGYRMELEEIEFHVRQSQYVRSAVVIPYQPNGTVEYLIAAIVPEEHEFEKEFQLTSAIKKELAASLPAYMIPRKFIYQDHIQMTANGKIDRKRIGEEVLVRSHHHHHH,soluble
20,MFGLPMYNVWRAEQAGKAEFSKAEQNRRIKIEEAKANLEAEKLNAKAEIERAKGAAEAIRIENNSLTPTYIQYLWVRQQGSLNDKTVIYIPTEANLPLLEAGRTAGGLKRAECPTE,not soluble
21,MNRLPVDDVIPDLLTALEQRNAAVLQAPPGAGKTTRVPLALLDAPWLNGKRIIMLEPRRLAATNAARWMARSLGEEAGATVGYAIRFDRRVSARTRVEVVTEGILTRRLQSDPLLEGVGAVIFDEFHERSIHSDLALALCRDVQAGLREDLRIIVMSA,not soluble
22,SNAIAVGSERSADGKGMLLANPHFPWNGAMRFYQMHLTIPGRLDVMGASLPGLPVVNIGFSRHLAWTHTVDTSSHFTLYRLALDPKDPRRYLVDGRSLPLEEKSVAIEVRGADGKLSRVEHKVYQSIYGPLVVWPGKLDWNRSEAYALRDANLENTRVLQQWYSINQASDVADLRRRVEALQGIPWVNTLAADEQGNALYMNQSVVPYLKPELIPACAIPQLVAEGLPALQGQDSRCAWSRDPAAAQAGITPAAQLPVLLRRDFVQNSNDSAWLTNPASPLQGFSPLVSQEKPIGPRARYALSRLQGKQPLEAKTLEEMVTANHVFSADQVLPDLLRLCRDNQGEKSLARACAALAQWDRGANLDSGSGFVYFQRFMQRFAELDGAWKEPFDAQRPLDTPQGIALDRPQVATQVRQALADAAAEVEKSGIPDGARWGDLQVSTRGQERIAIPGGDGHFGVYNAIQSVRKGDHLEVVGGTSYIQLVTFPEEGPKARGLLAFSQSSDPRSPHYRDQTELFSRQQWQTLPFSDRQIDADPQLQRLSIRE,soluble
23,MSLARRHELSIALILQDKFTIAAFSGFIDALRLAADDAAKSRQIRVAWKVFAQHRSPVMASCGLRVATEDGLPVPEDYDYIAICGGNSFADAAPAPQLAQLIQRAHRARVGLLGICTGSFAIARAGLIGDRRFCIHWNVAEPFKALFPRAQISVDRIFIDEGDVITCAGSTAAIDLALYLVMRHCGQDRAQQVMRHMMLSQMRPATMPQAHFYQLPPGDSHPRLRRALHFMEQQLDHPPSVGAIARYCGVSVRQLERIFLQALGQTPNAAFRQMRLNYGRYLLSAGTLPVTEIAHIAGFSDAAHFSREFRRAFHETPSAHRRARSHGPDEGHHHHHH,soluble
